# Assay results reported in the nanobody polyreactivity screen of Harvey et al. (2022).
# Experiment: yeast display, Sf9 membrane polyspecificity reagent, FACS + sequencing; frameworks hold sequencing errors
# In short: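 A nanobody's polyreactivity label depends on the gate it was sorted from. Yeast display cells were stained with 10% biotinylated, detergent-solubilized Sf9 membrane reagent for 1 hour at 4 °C, enriched on streptavidin microbeads and sorted by FACS. The low and high (top ~1%) gates were set on anti-HA fluorescence for expression and streptavidin fluorescence for reagent binding.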
row,Sequence,polyreactivity (PSR sort gate)
1,QVQLVESGAGLVQAGVSLRLSCAASGRIFYYYTMGWYRHAPGKERELVASITIGDSTYYADSVKGRFTISRDNAKNTVYLQMNSLKPEDTAVYYCAAVKTVDVGYDYWGQGTQVTVSS,low polyreactivity
2,QVQLVESGAGLVQARGSLRLSCAASGRIFYQYAMGWYRQAPGKERELVAAISWNGGRTYYADSVKGRFTISRDNAKNTVYLQMNSLKPEDTAVYYCAASFTGYSRDRYGYWGQGTQVTVSS,high polyreactivity
3,QVQLVESGAGLVQDGGSLRLICAASGRTFTPYAMGRYRQAPGKEMEFVAAISIVGRTKYADSVKGRFTISRDNAKNTVYLQMNSLKPEDTEVYYCNAQDSRDRKFYWGYTRGHWGQGTQVTVSS,low polyreactivity
4,QVQLVESGAPLVQAGGSLRLSCAASGSTFERYVMGWYRQRLGNKGSWLPVLNHNGGSTYYADSVKGRFTISRDNAKNTVYLQMNSLKPEDTAVYYCAASFRTVLDYGYWGQGTQVTVSS,low polyreactivity
5,QVQLVESGARLVQAGGSLRLSCAASGSILGGNAMGWYRQPPGKERELVAAITFSGGGTYYADSVKGRFTISRDNAKNTVYLQMNSLKPEDTAVYYCAADIAGYTYEFDYWGQGTQLTVSS,low polyreactivity
6,QVQLVESGEGLVQAGGSLRLSCAASGSIFSLNAMGWYRQAPGKERELVAAISGRGGSTYYADSVKGRFTISRDNAKNTVYLQMNSLKPEDTAVYYCAARFSRTFLGYYYWGQGTQVTVSS,high polyreactivity
7,QVQLVESGGAIVQAGRSLRLSCAASGNIFESYGMGWYRQAPGKERELVATINTSSGSTYYADSVKGRFTISRDNAKYTVYLQMNRLKPEDTAVYYCAVRPKTSWYSWYYLGQGTQVTVSS,low polyreactivity
8,QVQLVESGGAKVQAGGSLRLSCAASGRTFDYYVMGWNRQAPVKEREFVAAITWSGDSTYYADSVKGRFTISRENAKNTVYLQMNSLKPEDTAVYYCNADYYPTTFYAFVYMYDYWGQGTQVTVSS,low polyreactivity
9,QVQLVESGGALDQAGGSLRLICAASGRIFWYNAMGWYRQAPGKERELVAGIRSGGSTNYADSVKGRFTISRDNAKNPVYLQMNSLKPEDTAVYYCAARRWRTQDRSHFYYWGQGTQVTVSS,low polyreactivity
10,QVQLVESGGALDQAGGSLRLSCAASGFFRYAMGSYRQAPGKERELVAAITSGGRTNYADSVKGRFTISRDNAKNTVYLQMNSLKPEDTAVYNCAADQGSRSEELDYWGQGTQVTVSS,low polyreactivity
11,QVQLVESGGALDQAGGSLRLSCAASGSTFVVNAMGWYIQAPGKERELVAGITTSGGSTYYADSVKGRFTISRDNAKTTVYLQMNSLKPEDTAVYYCAARRWPYVYRFRAYSGFDYWGQGTHVTVSS,low polyreactivity
12,QVQLVESGGALDQARGSLSLSCAASGFLFGQNAMVWSRQAPGKLREFVATNNRSGGSTYYADSVKGRFTISRDNAKNTVYVQMNSLKPEDTAVYYCAKGPRMSSSLRYSAYWIMNYWGQGTQVTVSS,high polyreactivity
13,QVQLVESGGALGQAGGSLRLSCAASGFTFRIYDMGWYRHAPGKETELVAAITNGGSTDYADSVKGRFTISRDNAKNTVYLQMNSLKPEDTAVYYCAADVTYQVYDLVSVWYDYWGQGTQVTVSS,low polyreactivity
14,QVQLVESGGALVHAGGSLRLSCAASGSIFYQYDMGWYRQAPLKERELVAAISRSGTRTYYEDSVKGRFTISRDNAKNTVYLKMNSLKPEDTAVYYCARRYRSGYGYWGQGTQVTVSS,high polyreactivity
15,QVQLVESGGALVQAGGRLRLSCAASGTFERKVMGWYIHAPGKERELVAAISRSGSSTYYADSLKGRFTISRDNAKNTVYLQMNSLKPEDTAVYYCAARGTKQHFNYWGQGTQVTVSS,high polyreactivity
16,QVQLVESGGALVQAGGSHRLSCAASGRTFHFNAMGWYRPATGKERELVAAITNSGGRTSYADSVKGRFTISRDNAKNTVYLQMNSMKPEDTAVYYCNVEVTYSSGKYDYWGPGTQVTVSS,low polyreactivity
17,QVQLVESGGALVQAGGSLRISCAASGRTFQVNTMGWYRQAPGKEMELVAAISSAGRTYYADSVKGRFTISRDNAKNTVYLQMNSLKPEDTAVYYCSAAWSYSYWKARYGYWGQGTQVTVSS,high polyreactivity
18,QVQLVESGGALVQAGGSLRLICAASGSIFGHNAMGWYRQAPGKERELVAAISRGTRTNYADSVKGRFTISRDNAKNTFYVQMNSLKQVDSAVYYCNLQPGRGPYVGRKYGYWGQGTQVTVSS,high polyreactivity
19,QVQLVESGGALVQAGGSLRLICAASGSTFDSNVKGWSRTAPGKERELVAVINGSGSNTYYADSVKGRFTISRDNAKNTVYLQMNSLKPEDTAVYYCNKRYWGGRYGYDYWGQGTQVTVSS,high polyreactivity
20,QVQLVESGGALVQAGGSLRLSCAASARIFGRNAMGWYTQAPGKERELVAAISSGGSTYYADSVKGRFTISRDNAKKTVYLQMNSLKPEDTAVYYCAVRGYYFNGGRAFESWGQGTQVTVSS,high polyreactivity
21,QVQLVESGGALVQAGGSLRLSCAASGFIFDAYAMGWYRQAPGKERELVPAIDYSGGNTYYADSVKGRFTISRDYAKNTVYLQMNSLKTEDTAVYYCNADYAGSFWSREYDYWGQGTQVTVSS,low polyreactivity
22,QVQLVESGGALVQAGGSLRLSCAASGFTFAWYAMGWYRQAPGKERELVAAISRSGGSTYYADSVKGRFTISRDNAKNTVYLQMNSLKPEDTAVYYCATRVYSYRKAGWYDYWGQGTQVTVSS,high polyreactivity

row,Sequence,polyreactivity (PSR sort gate)
1,QVQLVESGGALVQAGGSLRLSCAASGFTFRTYAMGWYRQAPRKERELVADISGSGGSTYYADSVKGRFTISRDNPKNTVYLQMNSLKPEDTAVSYCAADYASWSNWGYEYWGQGTQVTVSS,high polyreactivity
2,QVQLVESGGALVQAGGSLRLSCAASGGILQYNAMGWYRQAPGKEREFVAAITTSGGSTYYADSVKGRFTISRDNAKNTVYLQMNSLKPEDTAVYYCAADSWWGIYYSGYDYWGQGSQVTVSS,low polyreactivity
3,QVQLVESGGALVQAGGSLRLSCAASGIIFYSYAMGWYRQAPGKERELVAAISNNGGSTYADSVKGRFTISRDNAKNSVYLQMKSVKPEDTAVYYCAADPTGGVGFDGYYWGQGTQVTVSS,low polyreactivity
4,QVQLVESGGALVQAGGSLRLSCAASGLTFEVYAMGWYRQAPGKESELVAAISSGGGSTYYADSVKGRFTISRDNAKNTVYLQMNSLKPEDTEVYYCNAVAKLYYWRYDYWGKGTQVTVSS,low polyreactivity
5,QVQLVESGGALVQAGGSLRLSCAASGRIFRKNAMGWYRQAPGKERELGAAISGGGGSTYYAVSVKGRFTISRDNAKNTVYLQMNSLQPEDTAVYYCNAPILPGYWGQGTQVTVSS,high polyreactivity
6,QVQLVESGGALVQAGGSLRLSCAASGRIFWHNAMGWYRQAPGKERELVAAISSRGGSTSYADSVKGLFTISRDNAKNTVYLQMNSLKPEETAVYYCNARNQAYYRVWGYRGDYWGQGTQVTVSS,low polyreactivity
7,QVQLVESGGALVQAGGSLRLSCAASGRTYWSYNIGWYRKAPGKERELVAAITSSGGTTNYADSVKGRFTISRDNAKNTVYLQMNRLKREDTAVYYFAAYSWYFGSRYDYWGQGTQVTVSS,low polyreactivity
8,QVQLVESGGALVQAGGSLRLSCAASGSIFRYYAMGWYRQAPVKERELVAAIDFSGGRTYYADSVKGRFTISRDNAKNTVYLQMNRLKPEDTAVYDCARKYTTAYGSTFYYWGQGTQVSVSS,high polyreactivity
9,QVQLVESGGALVQAGGSLRLSCAASGSIFSRNAMGWYRTAPGKERELVAGISTGGSTNYADSVKGRFTISRDNAKNTVYLQMTSLKPEDTAVYYCAAPLAYEGDYWGQGTQVTVSS,low polyreactivity
10,QVQLVESGGALVQAGGSLRLSCAASGSIFVPYTMGWYRQAPGKERELVSSISYSGGTTYYADSVKGRFTISRDYAKNTVYLQMNSLKPEDTAVYYCAADWDESYSYRRYSHYDYWGQGTQVTVSS,low polyreactivity
11,QVQLVESGGALVQAGGSLRLSCAASGSTFGRYAMGWYRQAPGKERELVATIRSGGSTTYADSVKGRFTISRDNAKNTVYLQMNSLKREDTAVYYCAAGTKPSYYYWGQGTQVTVSS,low polyreactivity
12,QVQLVESGGALVQAGGSLRLSCAASGSTFHRNAMGWYRQAPGKERELVAAITSGGSTNYADSVKGRFTISRDNAMNTVYLQLNSLKPEDTAVYSCAKDYRHYNRGWYDYWGQGTQVTVSS,low polyreactivity
13,QVQLVESGGALVQAGGSLRLSCAASGSTIGDNAMGWYRQAPGKERELVASISWSGASTYYADSVKGRFTISRDNAKNTFYLPMKSLKPEETEVYYCAVYYSYFSHLYHLLFYYWGQGTQVTVSS,low polyreactivity
14,QVQLVESGGALVQAGGSLRLSCAASGSTLRANAMGWYRQAPGKERELVARITSGGSTYYADSVKGRFTISRDNAKNTVYFQMNSLKPEDTAVYYCAATYKLAYRRGYWGQGTQVTVSS,high polyreactivity
15,QVQLVESGGALVQAGGSLRLSCDASGSTLWDYAMGWYRQAPRKERELVAASTQSTGDTHYADSVKGRFTLSRDNAKNTVYFQMNSLKPEDTAVYYCAADSYLSVYDPYGYWGQGTQVTVSS,low polyreactivity
16,QVQLVESGGALVQAGGSLRLTCAASGRTLYLYAMGWYRQAPGKEREFVAAINSSGDSTYYADSVKGRFTISRDNAKNTVYLQMNSLNPEDTAVYYCNVAWFRHEYDYWGQGTQVTVSS,low polyreactivity
17,QVQLVESGGALVQAGGSLRVSCAASGRIFRRNAMGWDRPAPGKERELVAGIDRSGGSTYYADSVKRRFTISRDNGKKTVYIQMNSLKPEDTAVYYCNTRAPYRVKSSGYWGLGTQVTVSS,high polyreactivity
18,QVQLVESGGALVQAGGSVRLSCAASGRTFGTYAMGWYRQAPGKERELVAAISTRGGRTFYADSVKGRFTISRDNAKNTVYLQMNSLKPEDTAVYYCAAYYKYYEYDYWGQVTQVTVSS,high polyreactivity
19,QVQLVESGGCIVQAGGSLRLSCAASGFTFRTNTKGWYRQAPGKDRELVAAISRSGGSTYYADSVKGRFTISRDNAKNTVYLQMNSLKPEDTAVYDCNAVGRSDSYYLAYNYWGQGTQVTVSS,high polyreactivity
20,QVQLVESGGCIVQAGGSLRLSCAASGRTFRAYAMGWYRQAPGKEREFVAAITKRGGGTYYADSVKGRFTISRDNAKNTVYLQMNILKPEDTAVYYCAAESGSWYSRMDYWGQGTQVTVSS,high polyreactivity
21,QVQLVESGGCIVQAGVSLRLSCSSSGRTFGYNAMGLYRNAPGKERELVAAINWSGASKYYADSVKGRFTISRDNAKNTVYLQMNSLKPEDTAVYYCAADYSYIYGFDYWGQGTQVTVSS,low polyreactivity
